Experimental data from PMC3616737.

What was measured:
[1] = biological target: T1, XMRV reverse transcriptase (full-length, monomeric) (Xenotropic murine leukaemia …, UniProt A1Z651 658-1328); assay: X-ray crystallography
[2] = biological target: T1, XMRV reverse transcriptase …; assay: SAXS
[3] = biological target: T1, XMRV reverse transcriptase …; assay: SAXS; remark: listed apart in the source

B1: hybrid 1 (DNA:RNA)
RNA: AACAGAGUGCGACACCUGAUUCCAU
DNA: TGGAATCAGGTGTCGCACTCTG
[1]
  binding result: binds

B2: PPT-19 (DNA:RNA)
RNA: UAGUCUCCAGAAAAAGGGGGGAAUG
DNA: ATTCCCCCCTTTTTCTGGAGAC
[2]
  binding result: binds

B3: PPT-18 (DNA:RNA)
RNA: AGUCUCCAGAAAAAGGGGGGAAUGA
DNA: CATTCCCCCCTTTTTCTGGAGA
[3]
  binding result: binds
